Target: T1, C. elegans syntaxin-GST (UNC-64 cytoplasmic domain, aa 1-266) (C. elegans, UniProt O16000 1-266)
T1 construct: C. elegans syntaxin (UNC-64), cytoplasmic domain aa 1-266, lacking the TM domain, cloned into pGEX-2T; pGEX-2T normally puts GST at the N-terminus (surmise); also called GST syntaxin; source: recombinant, batch-purified with glutathione agarose under native conditions
T1 sequence (looked up): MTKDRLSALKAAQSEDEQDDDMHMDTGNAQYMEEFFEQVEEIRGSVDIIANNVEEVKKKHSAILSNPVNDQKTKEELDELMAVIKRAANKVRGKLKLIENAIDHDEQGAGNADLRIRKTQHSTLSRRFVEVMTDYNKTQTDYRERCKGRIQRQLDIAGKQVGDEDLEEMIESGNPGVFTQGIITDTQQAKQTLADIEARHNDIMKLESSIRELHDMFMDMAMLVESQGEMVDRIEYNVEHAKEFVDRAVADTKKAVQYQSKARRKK
Test: pull-down; ~1.6 uM each of C. elegans syntaxin-GST, rat SNAP-25-His6 and His6-TOM-1Ct or His6-SNB-1, 2 h to overnight at 4 °C in D-buffer, isolated on glutathione agarose; Coomassie Blue staining, densitometry
Settings: both partners purified

B1: C. elegans synaptobrevin SNB-1 cytoplasmic domain (aa 1-88), His6T7-tagged (domain or fragment, UniProt O02495 1-88, looked up)
chain: MDAQGDAGAQGGSQGGPRPSNKRLQQTQAQVDEVVGIMKVNVEKVLERDQKLSQLDDRADALQEGASQFEKSAATLKRKYWWKNIKMM
notes: C. elegans synaptobrevin (SNB-1), cytoplasmic domain aa 1-88, lacking the TM domain, cloned into pRSETC; also called His6T7-tagged SNB-1; His6-SNB-1; source: recombinant, purified (Ni-NTA agarose)
  binding result: binds

Reference: article PMC1514790, “Tomosyn Inhibits Synaptic Vesicle Priming in Caenorhabditis elegans” (PLoS Biology, 2006)
